Results published in the supplement of paper PMC9112550, “Optimization of the antimicrobial peptide Bac7 by deep mutational scanning” (BMC Biology, 2022).

System: Escherichia coli TOP10
Assay: shrunken log2 fold change of peptide-encoding DNA abundance (4.5 h post-induction vs induction); higher = less antimicrobial activity (less host growth inhibition)
Settings: time post-induction: 4.5 h; library: site-saturation at positions 5, 18, 19, 20
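Further: peptides expressed intracellularly from a pBAD plasmid library in pooled LB shake-flask culture, induced with 0.3% L-arabinose, DNA abundance read by NGS, three biological replicates, DESeq2 with apeglm shrinkage.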

Row | Sequence | shrunken log2 fold change
1 | RRIRPRPPRLPRPRPRPAWSPRP | 0.152
2 | RRIRCRPPRLPRPRPRPAVPPRP | 0.073
3 | RRIRMRPPRLPRPRPRPICWPRP | 0.0409
4 | RRIRQRPPRLPRPRPRPEGGPRP | 0.161
5 | RRIRTRPPRLPRPRPRPPRWPRP | 0.689
6 | RRIRKRPPRLPRPRPRPECNPRP | 0.0503
7 | RRIRGRPPRLPRPRPRPAHHPRP | 0.452
8 | RRIRARPPRLPRPRPRPLIWPRP | 0.359
9 | RRIRFRPPRLPRPRPRPSPRPRP | 0.426
10 | RRIRNRPPRLPRPRPRPLYYPRP | -0.0384
11 | RRIRVRPPRLPRPRPRPKYLPRP | -0.308
12 | RRIRQRPPRLPRPRPRPMWGPRP | -0.263
13 | RRIRDRPPRLPRPRPRPPARPRP | 1.46
14 | RRIRNRPPRLPRPRPRPQMEPRP | -0.191
15 | RRIRGRPPRLPRPRPRPKNMPRP | 0.176
16 | RRIRMRPPRLPRPRPRPHSQPRP | -0.00628
17 | RRIRDRPPRLPRPRPRPNWFPRP | -0.0729
18 | RRIRARPPRLPRPRPRPDGCPRP | 0.239
19 | RRIRTRPPRLPRPRPRPWWAPRP | -0.134
20 | RRIRCRPPRLPRPRPRPPDTPRP | 0.269
21 | RRIRSRPPRLPRPRPRPHWLPRP | -0.614
22 | RRIRDRPPRLPRPRPRPRHTPRP | 0.122
23 | RRIRPRPPRLPRPRPRPWLPPRP | -0.0294
24 | RRIRYRPPRLPRPRPRPQEIPRP | -0.507
25 | RRIRARPPRLPRPRPRPDYKPRP | -0.0382

Row | Sequence | shrunken log2 fold change
26 | RRIRMRPPRLPRPRPRPEGCPRP | 3.93
27 | RRIRARPPRLPRPRPRPNFCPRP | 0.24
28 | RRIRKRPPRLPRPRPRPSDTPRP | 0.322
29 | RRIRSRPPRLPRPRPRPTRIPRP | -0.0163
30 | RRIRHRPPRLPRPRPRPHLTPRP | -0.0621
31 | RRIRNRPPRLPRPRPRPQSMPRP | -0.567
32 | RRIRHRPPRLPRPRPRPVEIPRP | -0.0173
33 | RRIRVRPPRLPRPRPRPGNRPRP | -0.0858
34 | RRIRKRPPRLPRPRPRPNFCPRP | -0.0549
35 | RRIRPRPPRLPRPRPRPKANPRP | 0.0243
36 | RRIRFRPPRLPRPRPRPAVLPRP | 0.107
37 | RRIRVRPPRLPRPRPRPHRQPRP | -0.384
38 | RRIRMRPPRLPRPRPRPRGWPRP | 1.34
39 | RRIRSRPPRLPRPRPRPQHEPRP | -0.296
40 | RRIRKRPPRLPRPRPRPGCCPRP | 0.722
41 | RRIRKRPPRLPRPRPRPVVAPRP | 0.876
42 | RRIRFRPPRLPRPRPRPNHVPRP | -0.276
43 | RRIRTRPPRLPRPRPRPMTAPRP | 0.154
44 | RRIRQRPPRLPRPRPRPLYDPRP | -0.226
45 | RRIRERPPRLPRPRPRPCLHPRP | -0.0164
46 | RRIRNRPPRLPRPRPRPSAAPRP | 0.338
47 | RRIRGRPPRLPRPRPRPNQWPRP | 0.259
48 | RRIRARPPRLPRPRPRPMDIPRP | 0.142
49 | RRIRPRPPRLPRPRPRPLKCPRP | -0.131
50 | RRIRMRPPRLPRPRPRPKEPPRP | -0.074

Row | Sequence | shrunken log2 fold change
51 | RRIRSRPPRLPRPRPRPTAGPRP | 0.679
52 | RRIRGRPPRLPRPRPRPPDWPRP | 1.24
53 | RRIRVRPPRLPRPRPRPTIVPRP | -0.497
54 | RRIRNRPPRLPRPRPRPALEPRP | 0.025
55 | RRIRWRPPRLPRPRPRPNGMPRP | -0.0595
56 | RRIRHRPPRLPRPRPRPWCYPRP | -0.297
57 | RRIRPRPPRLPRPRPRPYHKPRP | -1.15
58 | RRIRRRPPRLPRPRPRPLKYPRP | 0.0102
59 | RRIRWRPPRLPRPRPRPSPLPRP | -0.26
60 | RRIRRRPPRLPRPRPRPRAVPRP | 0.427
61 | RRIRSRPPRLPRPRPRPMIFPRP | -0.325
62 | RRIRGRPPRLPRPRPRPMSPPRP | 0.00263
63 | RRIRCRPPRLPRPRPRPRWWPRP | 0.718
64 | RRIRYRPPRLPRPRPRPGRRPRP | 2.15
65 | RRIRNRPPRLPRPRPRPLHSPRP | -0.16
66 | RRIRCRPPRLPRPRPRPGVDPRP | -0.0475
67 | RRIRGRPPRLPRPRPRPKAKPRP | 0.017
68 | RRIRMRPPRLPRPRPRPPFCPRP | 0.0505
69 | RRIRNRPPRLPRPRPRPHDNPRP | -0.511
70 | RRIRQRPPRLPRPRPRPEPYPRP | 0.0808
71 | RRIRDRPPRLPRPRPRPSMIPRP | -0.162
72 | RRIRFRPPRLPRPRPRPVFWPRP | 0.423
73 | RRIRSRPPRLPRPRPRPMSSPRP | -0.313
74 | RRIRSRPPRLPRPRPRPLKVPRP | -0.0229
75 | RRIRPRPPRLPRPRPRPNENPRP | -0.348

Row | Sequence | shrunken log2 fold change
76 | RRIRIRPPRLPRPRPRPMGYPRP | -0.148
77 | RRIRRRPPRLPRPRPRPHFRPRP | -0.0205
78 | RRIRKRPPRLPRPRPRPHMFPRP | -0.469
79 | RRIRHRPPRLPRPRPRPEIEPRP | -0.0966
80 | RRIRSRPPRLPRPRPRPQVAPRP | 0.0589
81 | RRIRSRPPRLPRPRPRPGMWPRP | 0.0949
82 | RRIRRRPPRLPRPRPRPIREPRP | 0.208
83 | RRIRARPPRLPRPRPRPEGWPRP | 1.38
84 | RRIRDRPPRLPRPRPRPKTMPRP | -0.0184
85 | RRIRWRPPRLPRPRPRPRHFPRP | 0.223
86 | RRIRPRPPRLPRPRPRPGLPPRP | 0.0398
87 | RRIRWRPPRLPRPRPRPPCFPRP | 0.108
88 | RRIRYRPPRLPRPRPRPFEQPRP | -0.382
89 | RRIRLRPPRLPRPRPRPDQLPRP | -0.0435
90 | RRIRERPPRLPRPRPRPLHMPRP | -0.203
91 | RRIRRRPPRLPRPRPRPSTLPRP | -0.174
92 | RRIRQRPPRLPRPRPRPKYAPRP | -0.285
93 | RRIRARPPRLPRPRPRPDVPPRP | -0.0329
94 | RRIRGRPPRLPRPRPRPLGDPRP | 0.624
95 | RRIRFRPPRLPRPRPRPDIEPRP | 0.0974
96 | RRIRCRPPRLPRPRPRPWFYPRP | -0.758
97 | RRIRCRPPRLPRPRPRPTHIPRP | -0.326
98 | RRIRERPPRLPRPRPRPGCMPRP | -0.00389
99 | RRIRNRPPRLPRPRPRPMCLPRP | -0.0215
100 | RRIRGRPPRLPRPRPRPCVWPRP | 0.921

Row | Sequence | shrunken log2 fold change
101 | RRIRPRPPRLPRPRPRPCLYPRP | -0.595
102 | RRIRVRPPRLPRPRPRPYPTPRP | -0.398
103 | RRIRFRPPRLPRPRPRPPRNPRP | 0.263
104 | RRIRHRPPRLPRPRPRPVDIPRP | -0.167
105 | RRIRMRPPRLPRPRPRPDNWPRP | 0.402
106 | RRIRNRPPRLPRPRPRPILQPRP | -0.387
107 | RRIRCRPPRLPRPRPRPAWAPRP | 0.108
108 | RRIRWRPPRLPRPRPRPESYPRP | -0.134
109 | RRIRQRPPRLPRPRPRPQVGPRP | 0.331
110 | RRIRKRPPRLPRPRPRPENNPRP | 0.179
111 | RRIRARPPRLPRPRPRPHITPRP | -0.294
112 | RRIRGRPPRLPRPRPRPMFAPRP | 1.57
113 | RRIRCRPPRLPRPRPRPCRPPRP | -0.0339
114 | RRIRFRPPRLPRPRPRPHTIPRP | -0.745
115 | RRIRDRPPRLPRPRPRPNSEPRP | 0.261
116 | RRIRERPPRLPRPRPRPREDPRP | -0.0632
117 | RRIRRRPPRLPRPRPRPSSQPRP | -0.25
118 | RRIRNRPPRLPRPRPRPWSWPRP | 0.266
119 | RRIRPRPPRLPRPRPRPQYNPRP | -0.742
120 | RRIRHRPPRLPRPRPRPDKQPRP | 0.0409
121 | RRIRIRPPRLPRPRPRPHHEPRP | -0.0701
122 | RRIRNRPPRLPRPRPRPLKTPRP | -0.0746
123 | RRIRIRPPRLPRPRPRPKAHPRP | -0.242
124 | RRIRVRPPRLPRPRPRPMRCPRP | 0.204
125 | RRIRFRPPRLPRPRPRPISMPRP | -0.137
